Among the data in paper PMC8837617 (2022) are Kd values, retold here.

The assay concerns the target MAPK ERK2 (human, UniProt P28482 1-360). Description: FP.

No end group written: not given here. *: point of attachment. 5FAM = O=C1OC2(c3ccc(O)cc3Oc3cc(O)ccc32)c2ccc(C(=O)*)cc21

Sequence of MAPK ERK2 (P28482 whole entry): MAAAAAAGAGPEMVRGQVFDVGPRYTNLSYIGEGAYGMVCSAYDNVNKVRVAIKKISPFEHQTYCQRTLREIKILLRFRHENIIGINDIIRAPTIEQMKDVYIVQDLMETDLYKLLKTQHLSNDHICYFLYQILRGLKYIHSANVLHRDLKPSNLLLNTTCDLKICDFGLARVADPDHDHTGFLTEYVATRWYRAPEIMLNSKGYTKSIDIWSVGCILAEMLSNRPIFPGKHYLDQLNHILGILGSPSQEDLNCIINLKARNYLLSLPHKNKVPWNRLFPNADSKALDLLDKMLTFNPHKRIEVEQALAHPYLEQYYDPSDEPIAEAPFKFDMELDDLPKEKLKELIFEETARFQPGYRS

B1: fluorescent reporter peptide fl-HePTP (peptide)
chain: 5FAM-RLQERRGSNVALMLDV
With B1, the Kd was 23.9 µM. In other words, the double-digit micromolar range.

Broadly, the Kd is the equilibrium constant for the complex coming apart. A high value points to weaker binding.
